# Experimental data taken from patent publication US20240294607.
# Test system: T1, His-Tag-FGG (recombinant human fibrinogen gamma chain with N-terminal His-tag, produced in E. coli)
# T1 sequence: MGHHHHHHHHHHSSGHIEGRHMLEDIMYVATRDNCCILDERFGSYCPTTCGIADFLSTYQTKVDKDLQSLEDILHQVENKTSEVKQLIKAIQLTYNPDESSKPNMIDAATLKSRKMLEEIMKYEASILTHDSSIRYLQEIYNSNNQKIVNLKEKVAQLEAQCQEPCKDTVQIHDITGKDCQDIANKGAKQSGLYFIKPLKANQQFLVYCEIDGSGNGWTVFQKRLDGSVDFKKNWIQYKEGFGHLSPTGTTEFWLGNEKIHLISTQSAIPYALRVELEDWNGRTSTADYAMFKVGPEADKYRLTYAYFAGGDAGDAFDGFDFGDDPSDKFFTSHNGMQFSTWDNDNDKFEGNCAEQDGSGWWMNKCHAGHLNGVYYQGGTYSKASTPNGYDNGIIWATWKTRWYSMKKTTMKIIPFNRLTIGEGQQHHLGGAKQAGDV
substance,measurement,value
factor XIII,SDS-PAGE analysis of polymerization (crosslinking) of FGG with factor XIII,recombinant FGG can be crosslinked by factor XIII and produces dimers (about 100 kDa) and higher molecular weight FGG structures
